Test results taken from US20140308201A1 (Novartis, published 2014).

What was measured:
[1] = target: T1, Human FGFR2 IIIb D1-3 (human); test: SPR Biacore, method as Example 2
T1 construct: Extracellular domains D1-3 with C-terminal tag, made in HEK293T; also called recombinant human FGFR2 IIIb; hFGFR2
T1 chain: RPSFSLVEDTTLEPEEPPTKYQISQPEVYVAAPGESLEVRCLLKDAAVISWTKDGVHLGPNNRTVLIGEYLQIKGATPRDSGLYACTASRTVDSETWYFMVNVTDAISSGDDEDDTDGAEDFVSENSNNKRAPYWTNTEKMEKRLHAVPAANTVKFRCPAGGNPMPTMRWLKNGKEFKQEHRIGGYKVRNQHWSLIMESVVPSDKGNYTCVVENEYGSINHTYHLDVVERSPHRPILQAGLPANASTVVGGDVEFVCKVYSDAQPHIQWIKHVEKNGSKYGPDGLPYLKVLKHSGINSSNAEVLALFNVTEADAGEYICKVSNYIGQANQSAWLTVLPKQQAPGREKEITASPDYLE
Description: (§1) For kinetic measurements, experiments were performed in which the antibodies were immobilized to the sensor chip surface and the ability of the FGFR proteins described above listed in Table 1 to bind in free solution was determined Briefly, 50 μg/ml of anti-human Fc antibody at pH 4.75 was immobilized on a CM5 sensor chip through amine coupling at flow rate of 10 μl/minute on all four flow cells to reach 6000 RUs. […] Subsequently, 0.078-100 nM of FGFR receptors, diluted in a 2-fold series, were injected at a flow rate of 80 μl/min for 7 min over both reference and test flow cells. Dissociation of the binding was followed for 10 min using HBS-EP⁺ supplemented with 0.5 mg/ml of BSA and 10 μg/ml heparin as running buffer. After each injection cycle, the chip surface was regenerated with 10 mM glycine, pH 2.0 at 60 μl/min for 70 s.

[2] = target: T1, Human FGFR2 IIIb D1-3; test: SPR Biacore, method as Example 2
Description: as §1

[3] = target: T2, Mouse FGFR2 IIIb D1-3 (mouse); test: SPR Biacore, method as Example 2
T2 construct: Extracellular domains with C-terminal tag
Description: as §1

[4] = target: T3, Rat FGFR2 IIIb D1-3 (rat); test: SPR Biacore, method as Example 2
T3 construct: Extracellular domains with C-terminal tag
Description: as §1

[5] = target: T4, Cynomolgus monkey FGFR2 IIIb D1-3 (cynomolgus monkey); test: SPR Biacore, method as Example 2
T4 construct: also called Cyno FGFR2 IIIb
T4 chain: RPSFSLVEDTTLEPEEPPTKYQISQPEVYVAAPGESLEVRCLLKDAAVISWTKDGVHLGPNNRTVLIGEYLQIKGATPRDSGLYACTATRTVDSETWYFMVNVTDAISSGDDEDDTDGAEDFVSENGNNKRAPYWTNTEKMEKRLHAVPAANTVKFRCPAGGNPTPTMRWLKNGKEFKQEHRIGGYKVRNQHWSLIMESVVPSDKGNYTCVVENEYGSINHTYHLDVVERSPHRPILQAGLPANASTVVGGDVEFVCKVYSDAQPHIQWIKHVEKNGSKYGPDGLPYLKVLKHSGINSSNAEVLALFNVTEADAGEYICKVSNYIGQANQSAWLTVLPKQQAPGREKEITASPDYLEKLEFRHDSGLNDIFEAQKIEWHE
Description: as §1

[6] = target: T5, FGFR2 D2-D3 Construct (human); test: HDx-MS, antigen incubated 30 min with antibody
T5 construct: E. coli made, not glycosylated; also called E. Coli. derived FGFR2D2-D3 protein
T5 chain: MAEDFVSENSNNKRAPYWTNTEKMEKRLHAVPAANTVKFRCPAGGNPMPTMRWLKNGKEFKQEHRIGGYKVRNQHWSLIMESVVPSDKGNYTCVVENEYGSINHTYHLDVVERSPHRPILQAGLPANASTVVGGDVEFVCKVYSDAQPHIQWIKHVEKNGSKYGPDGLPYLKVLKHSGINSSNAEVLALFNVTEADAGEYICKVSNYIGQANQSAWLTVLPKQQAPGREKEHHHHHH
Description: The epitope mapping experiments described in this example were performed on a Waters HDx-MS platform, which includes a LEAP autosampler, nanoACQUITY UPLC System, and Synapt G2 mass spectrometer. The studies were automated by a LEAP autosampler operated by the LeapShell software, which performed initiation of the deuterium exchange reaction, reaction time control, quench reaction, injection onto the UPLC system and digestion time control. The Leap autosampler was equipped with two temperature controlled stacks maintained at 25° C. for HDx reaction and maintained at 2° C. for storage of protein and quench solution, respectively. Triplicate control experiments were carried out on antigen at a deuterium exchange time of 25 minutes. HDX was quenched with quenching buffer (6 M urea and 1 M TCEP pH=2.5). […] Triplicate experiments were carried out on antigen-mAb complex just as the control experiments except in these experiments the antigen in incubated for 30 min with the antibody at 25° C. prior to deuterium exchange.

[7] = target: T1, Human FGFR2 IIIb D1-3; test: SPR Biacore, IgG captured via anti-human Fc, soluble FGFR as analyte
Description: (§2) Affinity of the antibodies to FGFR2 species orthologues was determined using Biacore technology using a Biacore T100 instrument (GE Systems) and with CM5 sensor chips.
as §1

[8] = target: T2, Mouse FGFR2 IIIb D1-3; test: as above
Description: as §2, §1

[9] = target: T3, Rat FGFR2 IIIb D1-3; test: as above
Description: as §2, §1

[10] = target: T4, Cynomolgus monkey FGFR2 IIIb D1-3; test: as above
Description: as §2, §1

T3 sequence (P21803 other isoform, or with tags, fused parts or gaps): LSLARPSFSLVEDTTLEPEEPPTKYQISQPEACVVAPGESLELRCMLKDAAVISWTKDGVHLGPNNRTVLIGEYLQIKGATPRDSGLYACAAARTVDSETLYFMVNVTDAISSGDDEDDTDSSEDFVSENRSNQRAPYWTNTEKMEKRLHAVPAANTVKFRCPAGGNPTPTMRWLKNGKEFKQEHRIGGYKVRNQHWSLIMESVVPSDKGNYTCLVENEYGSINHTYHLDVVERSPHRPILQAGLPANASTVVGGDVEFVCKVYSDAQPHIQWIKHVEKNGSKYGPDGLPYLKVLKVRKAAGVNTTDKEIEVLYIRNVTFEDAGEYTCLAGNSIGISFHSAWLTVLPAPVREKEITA

B1: mAb12433 (antibody, human IgG1, kappa, V domains shown)
VH: QVQLVQSGAEVKKPGESLKISCKGSGYSFTNYYIHWVRQMPGKGLEWMGAIYPDNSDTTYSPSFQGQVTISADKSISTAYLQWSSLKASDTAMYYCARGADIWGQGTLVTVSS
VL: DIQMTQSPSSLSASVGDRVTITCRASQDIDPYLSNWYQQKPGKAPKLLIYDASNLQSGVPSRFSGSGSGTDFTLTISSLQPEDFATYYCQQTTSHPYTFGQGTKVEIKR
notes: HuCAL human IgG1
B1 showed a Kd [1] of 5.6 nM, a Kd [2] of 5.6 nM and a Kd [3] of 2.2 nM. The Kd [4] was 3.7 nM, the Kd [5] was 1.7 nM and the binding result [6] was “binds”. For the same binder, the Kd [7] was 5.6 nM, the Kd [8] was 8 nM and the Kd [9] was 12 nM. The Kd [10] was 12 nM.
